Numbering of substitutions follows the chain as printed.
B1: VRDN-03115 (antibody, V domains shown)
VH: QVQLVESGGGVVQPGRSLRLSCAASGFTFSDHYMDWVRQAPGKGLEWVAIIWFDGSSKYYPGSVKGRFTISRDNSKNTLYLQMNSLRAEDTAVYYCARELGRRYFDIWGRGTLVTVSS
VL: EIVMTQSPATLSVSPGERATLSCRASQGVSSYLAWYQQKPGQAPRLLIYGASTRATGIPARFSGSGSGTEFTLTISSLQSEDFAVYYCQQRSRWPPWTFGQGTKLEIK
B2: VRDN-03127 (antibody, V domains shown)
VH: B1 VH with Q1E, H32Y, Y33T, D35H, P61A, G62D, G66S, R110Q
VL: B1 VL
B3: VRDN-03131 (antibody, V domains shown)
VH: B1 VH with Q1E, D31S, H32Y, Y33S, D35H, S57E, P61V, G62D, G66S, R110Q
VL: B1 VL with Y32N, Q101G
B4: VRDN-03128 (antibody, V domains shown)
VH: B1 VH with Q1E, H32Y, Y33T, D35H
VL: B1 VL with Y32N, Q101G
B5: VRDN-03122 (antibody, V domains shown)
VH: EVQLVESGGGVVQPGRSLRLSCAASGFTFSSYSMHWVRQAPGKGLEWVAVIWYDGSSKYYADSVKSRFTISRDNSKNTLYLQMNSLRAEDTAVYYCARELGRRYFDIWGQGTLVTVSS
VL: B1 VL
B6: VRDN-03137 (antibody, V domains shown)
VH: B5 VH with S30D, S31D, S33A, S66G
VL: B1 VL with Y32N, Q101G
B7: VRDN-03126 (antibody, V domains shown)
VH: B5 VH with S30D, S31D, S33T, S66G
VL: B1 VL
B8: VRDN-03138 (antibody, V domains shown)
VH: B5 VH with S30D, S31D, S33T, S66G
VL: B1 VL with Y32N, Q101G
B9: VRDN-03121 (antibody, V domains shown)
VH: B5 VH with Q110R
VL: B1 VL
B10: VRDN-03124 (antibody, V domains shown)
VH: B5 VH with S30D, S31D, S33T, V50I, Y53F, S66G
VL: B1 VL
B11: VRDN-03135 (antibody, V domains shown)
VH: B5 VH with S30D, S31D, S33A, V50I, Y53F, S66G
VL: B1 VL with Y32N, Q101G
B12: VRDN-03117 (antibody, V domains shown)
VH: B5 VH with V50I, Y53F, S57N
VL: B1 VL
B13: VRDN-03130 (antibody, V domains shown)
VH: B5 VH with V50I, Y53F, A61V
VL: B1 VL with Y32N, Q101G
B14: VRDN-03123 (antibody, V domains shown)
VH: B5 VH with S30D, S31D, S33A, V50I, Y53F, S66G
VL: B1 VL
B15: VRDN-03119 (antibody, V domains shown)
VH: B5 VH with V50I, Y53F, S57E, A61V
VL: B1 VL
B16: VRDN-03134 (antibody, V domains shown)
VH: B5 VH
VL: B1 VL with Y32N, Q101G
B17: VRDN-03133 (antibody, V domains shown)
VH: B5 VH with Q110R
VL: B1 VL with Y32N, Q101G
B18: VRDN-03118 (antibody, V domains shown)
VH: B5 VH with V50I, Y53F, A61V
VL: B1 VL
B19: VRDN-03116 (antibody, V domains shown)
VH: B1 VH with Q1E, H32Y, Y33T, D35H
VL: B1 VL
B20: VRDN-03132 (antibody, V domains shown)
VH: B5 VH with S66G
VL: B1 VL with Y32N, Q101G
B21: VRDN-03139 (antibody, V domains shown)
VH: B5 VH with S31D, S33T, V50I, Y53F
VL: B1 VL with Y32N, Q101G
B22: VRDN-03129 (antibody, V domains shown)
VH: B5 VH with V50I, Y53F, S57N
VL: B1 VL with Y32N, Q101G
B23: VRDN-03120 (antibody, V domains shown)
VH: B5 VH with S66G
VL: B1 VL
B24: VRDN-03125 (antibody, V domains shown)
VH: B5 VH with S30D, S31D, S33A, S66G
VL: B1 VL
B25: VRDN-03136 (antibody, V domains shown)
VH: B5 VH with S30D, S31D, S33T, V50I, Y53F, S66G
VL: B1 VL with Y32N, Q101G
B26: VRDN-03038 (antibody, V domains shown)
VH: QVELVESGGGVVQPGRSQRLSCAASGFTFSSYGMHWVRQAPGKGLEWVAIIWFDGSSTYYADSVRGRFTISRDNSKNTLYLQMNSLRAEDTAVYFCARELGRRYFDLWGRGTLVSVSS
VL: EIVLTQSPATLSLSPGERATLSCHASQSVSSYLAWYQQKPGQAPRLLIYDASKRATGIPARFSGSGSGTDFTLTISSLEPEDFAVYYCQQRSKWPPWTFGQGTKVESK
B27: VRDN-03039 (antibody, V domains shown)
VH: B26 VH
VL: B26 VL with H24R, A25H
B28: VRDN-03046 (antibody, V domains shown)
VH: B26 VH
VL: B26 VL with H24R, Y32H
B29: VRDN-03041 (antibody, V domains shown)
VH: B26 VH
VL: B26 VL with H24R, Q27H
B30: VRDN-03091 (antibody, V domains shown)
VH: B26 VH with E3Q, Q18L, F95Y, S115T
VL: EIVLTQSPATLSLSPGERATLSCGASQSVSSSYLAWYQQKPGQAPRLLIYDASKRATGIPARFSGSGSGTDFTLTISSLEPEDFAVYYCQQRSKWPPWTFGQGTKVEIK
B31: VRDN-03045 (antibody, V domains shown)
VH: B26 VH
VL: B26 VL with H24R, S31H
B32: VRDN-03043 (antibody, V domains shown)
VH: B26 VH
VL: B26 VL with H24R, V29H
B33: VRDN-03044 (antibody, V domains shown)
VH: B26 VH
VL: B26 VL with H24R, S30H
B34: VRDN-03042 (antibody, V domains shown)
VH: B26 VH
VL: B26 VL with H24R, S28H
B35: VRDN-03089 (antibody, V domains shown)
VH: B26 VH with E3Q, Q18L, F95Y, S115T
VL: B30 VL with G24R

What was measured:
[1] = target: Recombinant human his-tagged IGF 1R extracellular domain protein (human) (UniProt P08069); experiment: SPR, captured antibody, dissociation at pH 6
[2] = target: Recombinant human his-tagged IGF 1R extracellular domain protein (human) (UniProt P08069); experiment: SPR, captured antibody, pH 7.4

| Binder | Kd [1] [nM] | koff [1] [s⁻¹] | kon [1] [M⁻¹ s⁻¹] | Kd [2] [nM] | koff [2] [s⁻¹] | kon [2] [M⁻¹ s⁻¹] |
| --- | --- | --- | --- | --- | --- | --- |
| B1 | 1.21 | 0.000297 | 246000 |  |  |  |
| B2 |  |  |  | 0.573 | 7.48e-05 | 131000 |
| B3 |  |  |  | 16.2 | 0.00141 | 86900 |
| B4 |  |  |  | 7.3 | 0.00241 | 331000 |
| B5 |  |  |  | 4.09 | 0.000455 | 111000 |
| B6 |  |  |  | 15.1 | 0.0142 | 940000 |
| B7 |  |  |  | 8.7 | 0.00297 | 341000 |
| B8 |  |  |  | 8.75 | 0.00433 | 495000 |
| B9 |  |  |  | 4.27 | 0.000486 | 114000 |
| B10 |  |  |  | 1.84 | 0.000157 | 85200 |
| B11 |  |  |  | 4.06 | 0.000414 | 102000 |
| B12 |  |  |  | 8.1 | 0.00391 | 483000 |
| B13 |  |  |  | 2.72 | 0.000275 | 101000 |
| B14 |  |  |  | 1.43 | 9.19e-05 | 64200 |
| B15 |  |  |  | 9.78 | 0.00153 | 157000 |
| B16 |  |  |  | 4.89 | 0.0012 | 245000 |
| B17 |  |  |  | 6.51 | 0.00228 | 350000 |
| B18 |  |  |  | 1.08 | 0.000107 | 98600 |

| Binder | Kd [1] [nM] | koff [1] [s⁻¹] | kon [1] [M⁻¹ s⁻¹] | Kd [2] [nM] | koff [2] [s⁻¹] | kon [2] [M⁻¹ s⁻¹] |
| --- | --- | --- | --- | --- | --- | --- |
| B19 |  |  |  | 4.3 | 0.00091 | 212000 |
| B20 |  |  |  | 10.1 | 0.004 | 395000 |
| B21 |  |  |  | 2.46 | 0.000262 | 107000 |
| B22 |  |  |  | 11 | 0.00709 | 646000 |
| B23 |  |  |  | 3.96 | 0.00128 | 322000 |
| B24 |  |  |  | 8.61 | 0.00292 | 339000 |
| B25 |  |  |  | 2.84 | 0.000253 | 89100 |
| B26 | 1.4 | 0.000115 | 82000 | 1.72 | 0.000167 | 96900 |
| B27 | 14.3 | 0.00563 | 394000 | 11.3 | 0.00332 | 294000 |
| B28 | 1.87 | 0.000159 | 84800 | 1.58 | 0.000162 | 103000 |
| B29 | 0.556 | 3.61e-05 | 65000 | 3.16 | 0.0003 | 94900 |
| B30 |  |  |  | 11 | 0.00902 | 819000 |
| B31 | 0.624 | 5.02e-05 | 80500 | 1.29 | 0.000135 | 105000 |
| B32 | 18.2 | 0.0253 | 1.39e+06 | 22.4 | 0.0111 | 493000 |
| B33 | 3.79 | 0.000217 | 57300 | 1.96 | 0.000192 | 98400 |
| B34 | 1.2 | 9.44e-05 | 78400 | 1.53 | 0.000172 | 112000 |
| B35 |  |  |  | 236 | 0.0173 | 73300 |

Reference: patent US20240352133A1
